Experimental data taken from patent US20160319321.
Positions count from the first letter of the chain named. In names and notes the source's numbering stands. Several values for one entry are separate records, joined by “and”; a condition that tells them apart may be missing. Identical values can stand only once.

Columns and labels:
[1] = molecular target: T1, DVKPGQELYDEGDR-[Arg34]GLP-1(9-37)
T1 chain: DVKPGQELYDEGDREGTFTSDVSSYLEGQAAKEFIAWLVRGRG

[2] = molecular target: T2, Lys(Dnp)-DEGDR-HAEGT-Lys(Abz)amide
T2 chain: KDEGDRHAEGTK

[3] = molecular target: T3, Lys(Dnp)-EDGDR-EGTFT-Lys(Abz)amide
T3 chain: KEDGDREGTFTK

[4] = molecular target: T4, Lys(Dnp)-SSGDRHAEGT-Lys(Abz)amide
T4 chain: KSSGDRHAEGTK

[5] = molecular target: T5, Lys(Dnp)-DGGDR-HGEGT-Lys(Abz)amide
T5 chain: KDGGDRHGEGTK

[6] = molecular target: T6, Lys(Dnp)-EEGDR-EGTFT-Lys(Abz)amide
T6 chain: KEEGDREGTFTK

[7] = molecular target: T7, Lys(Dnp)-EAGDR-HAEGT-Lys(Abz)amide
T7 chain: KEAGDRHAEGTK

[8] = molecular target: T8, Lys(Dnp)-DEGDR-QGTFT-Lys(Abz)amide
T8 chain: KDEGDRQGTFTK

[9] = molecular target: T9, Lys(Dnp)-DSGDR-HAEGT-Lys(Abz)amide
T9 chain: KDSGDRHAEGTK

[10] = molecular target: T10, Lys(Dnp)-EHGDR-HGEGT-Lys(Abz)amide
T10 chain: KEHGDRHGEGTK

[11] = molecular target: T11, Lys(Dnp)-EWGDR-HAEGT-Lys(Abz)amide
T11 chain: KEWGDRHAEGTK

[12] = molecular target: T12, Lys(Dnp)-LDEGDR-HAEGT-Lys(Abz)amide
T12 chain: KLDEGDRHAEGTK

[13] = molecular target: T13, Lys(Dnp)-MDEGDR-HAEGT-Lys(Abz)amide
T13 chain: KMDEGDRHAEGTK

[14] = molecular target: T14, Lys(Dnp)-GDEGDR-HAEGT-Lys(Abz)amide
T14 chain: KGDEGDRHAEGTK

[15] = molecular target: T15, Lys(Dnp)-EQGDR-HAEGT-Lys(Abz)amide
T15 chain: KEQGDRHAEGTK

[16] = molecular target: T16, DVKPEQPLYDEGDR-[Arg34]GLP-1(9-37)
T16 chain: T1 chain with G5E, E7P

[17] = molecular target: T17, Lys(Dnp)-KDEGDR-HAEGT-Lys(Abz)amide
T17 chain: KKDEGDRHAEGTK

[18] = molecular target: T18, Lys(Dnp)-ELGDR-EGTFT-Lys(Abz)amide
T18 chain: KELGDREGTFTK

[19] = molecular target: T19, Lys(Dnp)-DQGDR-HGEGT-Lys(Abz)amide
T19 chain: KDQGDRHGEGTK

[20] = molecular target: T20, Lys(Dnp)-DWGDR-EGTFT-Lys(Abz)amide
T20 chain: KDWGDREGTFTK

[21] = molecular target: T21, Lys(Dnp)-DLGDR-HGTFT-Lys(Abz)amide
T21 chain: KDLGDRHGTFTK

[22] = molecular target: T22, Lys(Dnp)-DLGDR-HAEGT-Lys(Abz)amide
T22 chain: KDLGDRHAEGTK

[23] = molecular target: T23, Lys(Dnp)-DQGDR-HAEGT-Lys(Abz)amide
T23 chain: KDQGDRHAEGTK

[24] = molecular target: T24, Lys(Dnp)-DGGDR-HAEGT-Lys(Abz)amide
T24 chain: KDGGDRHAEGTK

[25] = molecular target: T25, Lys(Dnp)-QEGDR-HAEGT-Lys(Abz)amide
T25 chain: KQEGDRHAEGTK

[26] = molecular target: T26, Lys(Dnp)-ESGDR-HGEGT-Lys(Abz)amide
T26 chain: KESGDRHGEGTK

[27] = molecular target: T27, DVKPGQPEYDDDDK-[Arg34]GLP-1(9-37)
T27 chain: T1 chain with E7P, L8E, E11D, G12D, R14K

[28] = molecular target: T28, Lys(Dnp)-ESGDR-HAEGT-Lys(Abz)amide
T28 chain: KESGDRHAEGTK

[29] = molecular target: T29, DVKPGQPLADEGDR-[Arg34]GLP-1(9-37)
T29 chain: T1 chain with E7P, Y9A

[30] = molecular target: T30, Lys(Dnp)-DDGDR-EGTFT-Lys(Abz)amide
T30 chain: KDDGDREGTFTK

[31] = molecular target: T31, Lys(Dnp)-EQGDR-EGTFT-Lys(Abz)amide
T31 chain: KEQGDREGTFTK

[32] = molecular target: T32, Lys(Dnp)-YDEGDR-HAEGT-Lys(Abz)amide
T32 chain: KYDEGDRHAEGTK

[33] = molecular target: T33, Lys(Dnp)-NEGDR-HAEGT-Lys(Abz)amide
T33 chain: KNEGDRHAEGTK

[34] = molecular target: T34, Lys(Dnp)-DLGDR-EGTFT-Lys(Abz)amide
T34 chain: KDLGDREGTFTK

[35] = molecular target: T35, Lys(Dnp)-EGGDR-HAEGT-Lys(Abz)amide
T35 chain: KEGGDRHAEGTK

[36] = molecular target: T36, Lys(Dnp)-EYGDR-EGTFT-Lys(Abz)amide
T36 chain: KEYGDREGTFTK

[37] = molecular target: T37, Lys(Dnp)-VEGDR-HAEGT-Lys(Abz)amide
T37 chain: KVEGDRHAEGTK

[38] = molecular target: T38, Lys(Dnp)-DEGDR-HGTFT-Lys(Abz)amide
T38 chain: KDEGDRHGTFTK

[39] = molecular target: T39, Lys(Dnp)-DSGDR-HGEGT-Lys(Abz)amide
T39 chain: KDSGDRHGEGTK

[40] = molecular target: T40, Lys(Dnp)-EAGDR-HGEGT-Lys(Abz)amide
T40 chain: KEAGDRHGEGTK

[41] = molecular target: T41, Lys(Dnp)-DWGDR-HGEGT-Lys(Abz)amide
T41 chain: KDWGDRHGEGTK

[42] = molecular target: T42, Lys(Dnp)-DGGDR-EGTFT-Lys(Abz)amide
T42 chain: KDGGDREGTFTK

B1: bovine Enterokinase light chain variant (C112A, L134K, I135K) (protein)
chain: IVGGSDSREGAWPWVVALYFDDQQVCGASLVSRDWLVSAAHCVYGRNMEPSKWKAVLGLHMASNLTSPQIETRLIDQIVINPHYNKRRKNNDIAMMHLEMKVNYTDYIQPIALPEENQVFPPGRICSIAGWGAKKYQGSTADVLQEADVPLLSNEKCQQQMPEYNITENMVCAGYEAGGVDSCQGDSGGPLMCQENNRWLLAGVTSFGYQCALPNRPGVYARVPRFTEWIQSFLH
- Activity (%) [1]: 1040%
- Activity (%) [2]: 1100% and 942%
- Activity (%) [3]: 505%
- Activity (%) [4]: 191%
- Activity (%) [5]: 301%
- Activity (%) [6]: 580%
- Activity (%) [7]: 582%
- Activity (%) [8]: 411%
- Activity (%) [9]: 504% and 380%
- Activity (%) [10]: 491%
- Activity (%) [11]: 456%
- Activity (%) [12]: 259%
- Activity (%) [13]: 209%
- Activity (%) [14]: 267%
- Activity (%) [15]: 808%
- Activity (%) [16]: 803%
- Activity (%) [17]: 175%
- Activity (%) [18]: 396%
- Activity (%) [19]: 467%
- Activity (%) [20]: 410%
- Activity (%) [21]: 216%
- Activity (%) [22]: 795% and 722%
- Activity (%) [23]: 770%
- Activity (%) [24]: 431%
- Activity (%) [25]: 551%
- Activity (%) [26]: 221%
- Activity (%) [27]: 158%
- Activity (%) [28]: 557%
- Activity (%) [29]: 476%
- Activity (%) [30]: 428%
- Activity (%) [31]: 442%
- Activity (%) [32]: 153%
- Activity (%) [33]: 457%
- Activity (%) [34]: 438%
- Activity (%) [35]: 586%
- Activity (%) [36]: 353%
- Activity (%) [37]: 388%
- Activity (%) [38]: 392%
- Activity (%) [39]: 282%
- Activity (%) [40]: 275%
- Activity (%) [41]: 338%
- Activity (%) [42]: 322%
